Reference: patent US9618524B2, “Method, composition, isolation and identification of a plaque particle and related biomarker” (Plaxgen Inc., priority 2012, dated 2017)

B1: Angiotensinogen (protein)
chain: DRVYIHPFHLVIHNESTCEQLAKANAGKPKDPTFIPAPIQAKTSPVDEKALQDQLVLVAAKLDTEDKLRAAMVGMLANFLGFRIYGMHSELWGVVHGATVLSPTAVFGTLASLYLGALDHTADRLQAILGVPWKDKNCTSRLDAHKVLSALQAVQGLLVAQGRADSQAQLLLSTVVGVFTAPGLHLKQPFVQGLALYTPVVLPRSLDFTELDVAAEKIDRFMQAVTGWKTGCSLMGASVDSTLAFNTYVHFQGKMKGFSLLAEPQEFWVDNSTSVSVPMLSGMGTFQHWSDIQDNFSVTQVPFTESACLLLIQPHYASDLDKVEGLTFQQNSLNWMKKLSPRTIHLTMPQLVLQGSYDLQDLLAQAELPAILHTELNLQKLSNDRIRVGEVLNSIFFELEADEREPTESTQQLNKPEVLEVTLNRPFLFAVYDQSATALHFLGRVANPLSTA
B2: CD5 antigen-like (protein)
chain: SPSGVRLVGGLHRCEGRVEVEQKGQWGTVCDDGWDIKDVAVLCRELGCGAASGTPSGILYEPPAEKEQKVLIQSVSCTGTEDTLAQCEQEEVYDCSHDEDAGASCENPESSFSPVPEGVRLADGPGHCKGRVEVKHQNQWYTVCQTGWSLRAAKVVCRQLGCGRAVLTQKRCNKHAYGRKPIWLSQMSCSGREATLQDCPSGPWGKNTCNHDEDTWVECEDPFDLRLVGGDNLCSGRLEVLHKGVWGSVCDDNWGEKEDQVVCKQLGCGKSLSPSFRDRKCYGPGVGRIWLDNVRCSGEEQSLEQCQHRFWGFHDCTHQEDVAVICSG
B3: C4b-binding protein alpha chain (protein)
chain: NCGPPPTLSFAAPMDITLTETRFKTGTTLKYTCLPGYVRSHSTQTLTCNSDGEWVYNTFCIYKRCRHPGELRNGQVEIKTDLSFGSQIEFSCSEGFFLIGSTTSRCEVQDRGVGWSHPLPQCEIVKCKPPPDIRNGRHSGEENFYAYGFSVTYSCDPRFSLLGHASISCTVENETIGVWRPSPPTCEKITCRKPDVSHGEMVSGFGPIYNYKDTIVFKCQKGFVLRGSSVIHCDADSKWNPSPPACEPNSCINLPDIPHASWETYPRPTKEDVYVVGTVLRYRCHPGYKPTTDEPTTVICQKNLRWTPYQGCEALCCPEPKLNNGEITQHRKSRPANHCVYFYGDEISFSCHETSRFSAICQGDGTWSPRTPSCGDICNFPPKIAHGHYKQSSSYSFFKEEIIYECDKGYILVGQAKLSCSYSHWSAPAPQCKALCRKPELVNGRLSVDKDQYVEPENVTIQCDSGYGVVGPQSITCSGNRTWYPEVPKCEWETPEGCEQVLTGKRLMQCLPNPEDVKMALEVYKLSLEIEQLELQRDSARQSTLDKEL
B4: Serum paraoxonase/arylesterase (protein)
chain: AKLIALTLLGMGLALFRNHQSSYQTRLNALREVQPVELPNCNLVKGIETGSEDLEILPNGLAFISSGLKYPGIKSFNPNSPGKILLMDLNEEDPTVLELGITGSKFDVSSFNPHGISTFTDEDNAMYLLVVNHPDAKSTVELFKFQEEEKSLLHLKTIRHKLLPNLNDIVAVGPEHFYGTNDHYFLDPYLQSWEMYLGLAWSYVVYYSPSEVRVVAEGFDFANGINISPDGKYVYIAELLAHKIHVYEKHANWTLTPLKSLDFNTLVDNISVDPETGDLWVGCHPNGMKIFFYDSENPPASEVLRIQNILTEEPKVTQVYAENGTVLQGSTVASVYKGKLLIGTVFHKALYCEL

The molecules below were run against T1, Abeta-42 plaque particles (Homo sapiens, UniProt P05067) (assay: Mass spectroscopy proteomics, semi-quantitative binding affinity of serum proteins (plaqueproteome, Table 2)). Conditions: higher number = stronger affinity.
T1 construct: Abeta 1-42
Description: Next to isolate serum derived Abeta-42 plaque particles, the plasma or serum samples obtained from AD subjects were first centrifuged at 5,000 rpm for 5 min and the supernatants were transferred to new centrifuge tubes. Next, the supernatants were diluted in PBS to make 50% of the serum and plasma samples and used for incubation with Abeta-42 plaque oligomers/aggregates. Each assay was performed in 1 mL reaction (800 μL of 50% plasma or serum) and 200 μL (30 μg) of the Abeta-42 aggregates and the mixtures were incubated at 37° C. for 1 hr. To the mixture Thioflavin S dye (120 μg) was added and the sample was incubated for additional 30 min at 37° C. After the incubation, the mixture was directly used for sample acquisition using flow cytometer (FACS ARIA II, BD Biosciences, San Jose, Calif.). After initial detection of Abeta-42 plaque particles in the acquisition blot, gates were drawn in fluorescent dot blot to separately sort and isolate fluorescently labeled Abeta-42 particles.
(§1) For preparing trypsin digested peptide sequences, the isolated plaque particles were centrifuged at 10000 rpm for 5 min and the pellet containing plaque particles was resuspended in 100 μl PBS buffer. Stock solutions of digestion buffer (Ammonium Biocarbonate 50 mM), reducing buffer (DDT 100 mM) and alkylation buffer (lodoaceamide 100 mM) were prepared and stored at −20° C. for up to two months. For trypsin digestion, 100 μl of each plaque particles (2000 of Abeta-42, cholesterol, Tau and alpha-synuclein) were precipitated using cold acetone −80° C. by adding 4X's the volume. The samples were placed on dry ice for 10 min with intermittent vortex. Next, the samples were centrifuged at 4° C. at 10000 G for 10 min. Top layer of acetone was carefully removed from the tube with care not to disturb the plaque particles pellet. The samples were speed-vac for 10 min to ensure all acetone has been boiled away. The plaque particles pellet were reconstituted with 15 μl 8M Urea 100 mM Ammonium bicarbonate stock and 20 μl protease max solution. The protease max solution (Promega, Madison, Wis.) was prepared from stock by adding 60 μl 50 mM Ammonium bicarbonate and used for 3 solution digests (20 μl each). […] The tubes were incubated at 55° C. for 30 minutes. The tubes were then removed and brought to the room temperature followed by addition of 3.2 μl of 1M acrylamide and incubated at room temperature for 30 minutes. To the sample, 63 μL of 50 mM Ammonium bicarbonate was added for a final volume of 98 μl and 2 μl of trypsin (10 μg, Trypsin/Lys C Mix). After mixing the solution with pipet the samples were incubated at 37° C. overnight. After the overnight digest, the tryptic digest were quenched and acidified by adding 10 μl of 50% formic acid/water stock dilution. The samples were centrifuged at 10000 G for 2 minutes and purified using stage tip and used for MS/Mass analysis.
(§2) All MS/MS samples were analyzed using Sequest (Thermo Fisher Scientific, San Jose, Calif., USA; version 1.0). Sequest was set up to search the SUMS_uniprot_Human database (35847 entries) assuming the digestion enzyme strict trypsin. Sequest was searched with a fragment ion mass tolerance of 1.00 Da and a parent ion tolerance of 20 PPM. Propionamide of cysteine was specified in Sequest as a fixed modification. Oxidation of methionine and phospho of serine, threonine and tyrosine were specified in Sequest as variable modifications.
Scaffold (version Scaffold_4.2.1, Proteome Software Inc., Portland, Oreg.) was used to validate MS/MS based peptide and protein identifications. […] Protein probabilities were assigned by the Protein Prophet algorithm (Nesvizhskii, Al et al 2003). […] Proteins sharing significant peptide evidence were grouped into clusters. Proteins were annotated with GO terms from NCBI (downloaded Jan. 17, 2014).

| Molecule | Semi-quantitative analysis of proteins binding to different plaque particles: Abeta-42 |
| --- | --- |
| B1 | 14 |
| B2 | 4 |
| B3 | 0 |
| B4 | 2 |

What follows are molecules tested on High Density cholesterol (Chl Large) plaque particles in the same assay as above. Conditions: higher number = stronger affinity.
Set-up: species or system human
Description: (§3) The goal was to isolate plaque particles synthesized in the bio-fluids in a relatively pure form to enable their subsequent use for identification of components that contribute to the plaque formation. In order to isolate cholesterol plaque particles, the plasma or serum samples obtained from atherosclerotic subjects were first centrifuged at 5,000 rpm for 5 min and the supernatants were transferred to new centrifuge tubes. Next, the supernatants were diluted in PBS to make 50% of the serum and used for incubation with cholesterol oligomers/aggregates. Each assay was performed in 1 mL reaction (800 μL of 50% plasma or serum) and 200 μL (30 μg) of the Cholesterol aggregates and the mixtures were incubated at 37° C. for 1 hr After the incubation, the mixture was directly used for sample acquisition using flow cytometer (FACS ARIA II, BD Biosciences, San Jose, Calif.). […] In order to isolate these fractions, three sets of gates were drawn in the acquisition blot to separately sort and isolate High density or high complex cholesterol particles, Low density or low complex cholesterol particles and both High and low density cholesterol particles together.
as §1, §2
(§4) Scaffold (version Scaffold_4.2.1, Proteome Software Inc., Portland, Oreg.) was used to validate MS/MS based peptide and protein identifications. […] Protein probabilities were assigned by the Protein Prophet algorithm (Nesvizhskii, Al et al 2003).

| Molecule | Semi-quantitative analysis of proteins binding to different plaque particles: Chl Large |
| --- | --- |
| B1 | 10 |
| B2 | 6 |
| B3 | 8 |
| B4 | 5 |

These molecules were tested on Low density cholesterol (Chl small) plaque particles in the same assay as above. Conditions: higher number = stronger affinity.
Set-up: species or system human
Description: as §3, §1, §2, §4

| Molecule | Semi-quantitative analysis of proteins binding to different plaque particles: Chl small |
| --- | --- |
| B1 | 9 |
| B2 | 7 |
| B3 | 8 |
| B4 | 6 |

These molecules were tested against T2, alpha-synuclein plaque particles (Homo sapiens, UniProt P37840) in the same assay as above. Conditions: higher number = stronger affinity.
T2 construct: 140 amino acids polypeptide
Description: To prepare oligomers/aggregates of human alpha-synuclein (140 amino acids polypeptide), 1 mg of the recombinant alpha-synuclein protein was suspended in 1 mL of PBS and the sample was incubated at 37° C. for 2 hrs. After incubation, all the samples were centrifuged for 5 min. at 5000 rpm to remove precipitate, if any, and the supernatant containing oligomers/aggregates were used in vitro plaque particles formation assay. For detecting alpha-synuclein plaque particles Thioflavin S (Ex/Em=430 nm/550 nm) amyloid binding fluorescent dye (10 μg) was used.
Similarly, to isolate alpha-synuclein plaque particles, diluted plasma or serum samples obtained from AD subjects were used for incubation with alpha-synuclein plaque oligomers/aggregates. Each assay was performed in 1 mL reaction (800 μL of 50% plasma or serum) and 200 μL (30 μg) of the alpha-synuclein aggregates and the mixtures were incubated at 37° C. for 1 hr. To the mixture Thioflavin S dye (120 μg) was added and the sample was incubated for additional 30 min at 37° C. After the incubation, the mixture was directly used for sample acquisition using flow cytometer (FACS ARIA II, BD Biosciences, San Jose, Calif.). After initial detection of alpha-synuclein plaque particles, gates were drawn in the acquisition blot to separately sort and isolate fluorescently labeled alpha-synuclein particles.
as §1, §2
Scaffold (version Scaffold_4.2.1, Proteome Software Inc., Portland, Oreg.) was used to validate MS/MS based peptide and protein identifications.

| Molecule | Semi-quantitative analysis of proteins binding to different plaque particles: Synuclein |
| --- | --- |
| B1 | 7 |
| B2 | 6 |
| B3 | 7 |
| B4 | 7 |

The molecules below were run on Tau plaque particles in the same assay as above. Conditions: higher number = stronger affinity.
Set-up: species or system human
Description: For Tau-74 (74-102) (Exon 3/Insert 2 domain) preparation, 1 mg of Tau-74 was suspended in 1 mL of PBS and the sample was incubated at 37° C. for 2 hrs. Similarly for preparing Tau-275 (275-305) (Repeat 2 domain) 1 mg of the peptide was suspended in 1 mL of PBS and the sample was incubated at 37° C. for 2 hrs. After incubation, all the samples were centrifuged for 5 min. at 5000 rpm to remove precipitate, if any, and the supernatant containing oligomers/aggregates were used for in vitro amyloid plaque particles formation assay. For detecting Tau plaque particles, Thioflavin S (Ex/Em=430 nm/550 nm) amyloid binding fluorescent dye (10 μg) was used in the assay.
Next, to isolate Tau plaque particles, as performed for Abeta-42 and Abeta-28 plaque particles isolation, diluted serum samples were used for incubation separately with Tau-45, Tau-74 and Tau-275 oligomers/aggregates. Each assay was performed in 1 mL reaction (800 μL of 50% plasma or serum) and 200 μL (30 μg) of each Tau aggregates and the mixtures were incubated at 37° C. for 1 hr. To the each mixture Thioflavin S dye (120 μg) was added and the sample was incubated for additional 30 min at 37° C. After the incubation, each sample was directly used for sample acquisition using flow cytometer (FACS ARIA II, BD Biosciences, San Jose, Calif.). After initial detection of Tau plaque particles, gates were drawn in the acquisition blot to separately sort and isolate fluorescently labeled Tau plaque particles.
as §1, §2

| Molecule | Semi-quantitative analysis of proteins binding to different plaque particles: Tau |
| --- | --- |
| B1 | 15 |
| B2 | 3 |
| B3 | 1 |
| B4 | 3 |
